The record followed here is article PMC11065122 (Journal of the American Chemical Society, 2023).

One experiment concerns the target MP^(A (E9D)) D9ADPr1. Briefly: fluorescence polarisation. (Polarisation of emitted light reports the rotation of a fluorescent probe.)
A further experiment addresses MP^A E9ADPr1. The experiment is described as follows: fluorescence polarisation.
For a further experiment, the target named is MP^A R5ADPr1. The experiment is described as follows: fluorescence polarisation.
In the next experiment the target is MP^A S7ADPr1. Briefly: fluorescence polarisation.
Another experiment has as its system PARP14^cat. Briefly: PARP14cat mono-ADP-ribosylation of substrate peptides, RP-HPLC/MS. Type of experiment: biochemical. To be noted: after PARP14^cat reaction condition optimization, NAD+, listed as MP^B.

Take “pan-ADP-ribose detection reagent (an Af1521 macrodomain-Fc region fusion) (Fc fusion)”: the dissociation constant Kd – broadly, the free concentration of one partner at which half of the binding sites on the other are occupied at equilibrium, for simple one-to-one binding – with MP^(A (E9D)) D9ADPr1 was 1810 nM; with MP^A E9ADPr1, 732 nM; with MP^A R5ADPr1, 15.6 nM; with MP^A S7ADPr1, 1170 nM.
For the substance GWTARKSAEVGAGK [MP^A], in the experiment on PARP14^cat, the “conversion to mono-ADP-ribosylated product (ADPr1)” value is given as “no activity was detected”.
